Values belong to the substance of their own block, whether it stands above or below them.
What was measured:
IL-10 (human) [1] = target: IL-10 (human) (UniProt P22301); experiment: sandwich microarray in flow cell, chemiluminescence, cytokine 1 ng/ml, divided by chip-specific PNA calibration factor; Chip 1
IL-10 (human) [2] = target: IL-10 (human) (UniProt P22301); experiment: sandwich microarray in flow cell, chemiluminescence, cytokine 1 ng/ml; Chip 3
IL-10 (human) [3] = target: IL-10 (human) (UniProt P22301); experiment: sandwich microarray in flow cell, chemiluminescence, cytokine 1 ng/ml, divided by chip-specific PNA calibration factor; Chip 4
IL-10 (human) [4] = target: IL-10 (human) (UniProt P22301); experiment: sandwich microarray in flow cell, chemiluminescence, cytokine 1 ng/ml; Chip 1
IL-10 (human) [5] = target: IL-10 (human) (UniProt P22301); experiment: sandwich microarray in flow cell, chemiluminescence, cytokine 1 ng/ml; Chip 2
IL-10 (human) [6] = target: IL-10 (human) (UniProt P22301); experiment: sandwich microarray in flow cell, chemiluminescence, cytokine 1 ng/ml, divided by chip-specific PNA calibration factor; AVG of Chips 1-5
IL-10 (human) [7] = target: IL-10 (human) (UniProt P22301); experiment: sandwich microarray in flow cell, chemiluminescence, cytokine 1 ng/ml, divided by chip-specific PNA calibration factor; Chip 5
IL-10 (human) [8] = target: IL-10 (human) (UniProt P22301); experiment: sandwich microarray in flow cell, chemiluminescence, cytokine 1 ng/ml; Chip 4
IL-10 (human) [9] = target: IL-10 (human) (UniProt P22301); experiment: sandwich microarray in flow cell, chemiluminescence, cytokine 1 ng/ml, divided by chip-specific PNA calibration factor; Chip 2
IL-10 (human) [10] = target: IL-10 (human) (UniProt P22301); experiment: sandwich microarray in flow cell, chemiluminescence, cytokine 1 ng/ml, divided by chip-specific PNA calibration factor; Chip 3
IL-10 (human) [11] = target: IL-10 (human) (UniProt P22301); experiment: sandwich microarray in flow cell, chemiluminescence, cytokine 1 ng/ml; Chip 5
IL-10 (human) [12] = target: IL-10 (human) (UniProt P22301); experiment: sandwich microarray in flow cell, chemiluminescence, cytokine 1 ng/ml; AVG of Chips 1-5
IL-12p40 (human) [13] = target: IL-12p40 (human) (UniProt P29460); experiment: sandwich microarray in flow cell, chemiluminescence, cytokine 1 ng/ml, divided by chip-specific PNA calibration factor; Chip 1
Chain of UniProt P29460 (P29460 23-328 limits assumed): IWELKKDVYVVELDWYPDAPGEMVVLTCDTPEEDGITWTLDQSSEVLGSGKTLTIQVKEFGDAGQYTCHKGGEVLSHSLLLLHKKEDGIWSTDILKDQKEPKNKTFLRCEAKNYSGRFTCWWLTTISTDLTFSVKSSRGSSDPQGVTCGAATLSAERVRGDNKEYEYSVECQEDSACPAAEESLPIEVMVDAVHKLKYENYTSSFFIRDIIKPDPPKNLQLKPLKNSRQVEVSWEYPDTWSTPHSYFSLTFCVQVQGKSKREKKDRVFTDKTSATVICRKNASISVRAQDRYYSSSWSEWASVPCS

IL-12p40 (human) [14] = target: IL-12p40 (human) (UniProt P29460); experiment: sandwich microarray in flow cell, chemiluminescence, cytokine 1 ng/ml; Chip 3
IL-12p40 (human) [15] = target: IL-12p40 (human) (UniProt P29460); experiment: sandwich microarray in flow cell, chemiluminescence, cytokine 1 ng/ml, divided by chip-specific PNA calibration factor; Chip 4
IL-12p40 (human) [16] = target: IL-12p40 (human) (UniProt P29460); experiment: sandwich microarray in flow cell, chemiluminescence, cytokine 1 ng/ml; Chip 1
IL-12p40 (human) [17] = target: IL-12p40 (human) (UniProt P29460); experiment: sandwich microarray in flow cell, chemiluminescence, cytokine 1 ng/ml; Chip 2
IL-12p40 (human) [18] = target: IL-12p40 (human) (UniProt P29460); experiment: sandwich microarray in flow cell, chemiluminescence, cytokine 1 ng/ml, divided by chip-specific PNA calibration factor; AVG of Chips 1-5
IL-12p40 (human) [19] = target: IL-12p40 (human) (UniProt P29460); experiment: sandwich microarray in flow cell, chemiluminescence, cytokine 1 ng/ml, divided by chip-specific PNA calibration factor; Chip 5
IL-12p40 (human) [20] = target: IL-12p40 (human) (UniProt P29460); experiment: sandwich microarray in flow cell, chemiluminescence, cytokine 1 ng/ml; Chip 4
IL-12p40 (human) [21] = target: IL-12p40 (human) (UniProt P29460); experiment: sandwich microarray in flow cell, chemiluminescence, cytokine 1 ng/ml, divided by chip-specific PNA calibration factor; Chip 2
IL-12p40 (human) [22] = target: IL-12p40 (human) (UniProt P29460); experiment: sandwich microarray in flow cell, chemiluminescence, cytokine 1 ng/ml, divided by chip-specific PNA calibration factor; Chip 3
IL-12p40 (human) [23] = target: IL-12p40 (human) (UniProt P29460); experiment: sandwich microarray in flow cell, chemiluminescence, cytokine 1 ng/ml; Chip 5
IL-12p40 (human) [24] = target: IL-12p40 (human) (UniProt P29460); experiment: sandwich microarray in flow cell, chemiluminescence, cytokine 1 ng/ml; AVG of Chips 1-5
IL-8 (human) [25] = target: IL-8 (human) (UniProt P10145); experiment: sandwich microarray in flow cell, chemiluminescence, cytokine 1 ng/ml, divided by chip-specific PNA calibration factor; Chip 1
Chain of UniProt P10145 (P10145 28-99 limits assumed): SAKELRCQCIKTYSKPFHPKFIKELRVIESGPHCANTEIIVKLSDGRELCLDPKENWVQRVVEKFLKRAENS

IL-8 (human) [26] = target: IL-8 (human) (UniProt P10145); experiment: sandwich microarray in flow cell, chemiluminescence, cytokine 1 ng/ml; Chip 3
IL-8 (human) [27] = target: IL-8 (human) (UniProt P10145); experiment: sandwich microarray in flow cell, chemiluminescence, cytokine 1 ng/ml, divided by chip-specific PNA calibration factor; Chip 4
IL-8 (human) [28] = target: IL-8 (human) (UniProt P10145); experiment: sandwich microarray in flow cell, chemiluminescence, cytokine 1 ng/ml; Chip 1
IL-8 (human) [29] = target: IL-8 (human) (UniProt P10145); experiment: sandwich microarray in flow cell, chemiluminescence, cytokine 1 ng/ml; Chip 2
IL-8 (human) [30] = target: IL-8 (human) (UniProt P10145); experiment: sandwich microarray in flow cell, chemiluminescence, cytokine 1 ng/ml, divided by chip-specific PNA calibration factor; AVG of Chips 1-5
IL-8 (human) [31] = target: IL-8 (human) (UniProt P10145); experiment: sandwich microarray in flow cell, chemiluminescence, cytokine 1 ng/ml, divided by chip-specific PNA calibration factor; Chip 5
IL-8 (human) [32] = target: IL-8 (human) (UniProt P10145); experiment: sandwich microarray in flow cell, chemiluminescence, cytokine 1 ng/ml; Chip 4
IL-8 (human) [33] = target: IL-8 (human) (UniProt P10145); experiment: sandwich microarray in flow cell, chemiluminescence, cytokine 1 ng/ml, divided by chip-specific PNA calibration factor; Chip 2
IL-8 (human) [34] = target: IL-8 (human) (UniProt P10145); experiment: sandwich microarray in flow cell, chemiluminescence, cytokine 1 ng/ml, divided by chip-specific PNA calibration factor; Chip 3
IL-8 (human) [35] = target: IL-8 (human) (UniProt P10145); experiment: sandwich microarray in flow cell, chemiluminescence, cytokine 1 ng/ml; Chip 5
IL-8 (human) [36] = target: IL-8 (human) (UniProt P10145); experiment: sandwich microarray in flow cell, chemiluminescence, cytokine 1 ng/ml; AVG of Chips 1-5

Chain of UniProt P22301 (P22301 19-178 limits assumed): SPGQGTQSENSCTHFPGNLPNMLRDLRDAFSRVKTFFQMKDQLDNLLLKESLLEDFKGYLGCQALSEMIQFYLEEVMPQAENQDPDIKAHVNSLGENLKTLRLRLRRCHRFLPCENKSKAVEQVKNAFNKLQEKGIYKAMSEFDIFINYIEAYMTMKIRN

- chemiluminescent spot intensity (Calibrated Data) (IL-10 (human) [1]): 1320
- chemiluminescent spot intensity (Un-Calibrated Data) (IL-10 (human) [2]): 1360
- chemiluminescent spot intensity (Calibrated Data) (IL-10 (human) [3]): 1120
- chemiluminescent spot intensity (Un-Calibrated Data) (IL-10 (human) [4]): 788
- chemiluminescent spot intensity (Un-Calibrated Data) (IL-10 (human) [5]): 389
- chemiluminescent spot intensity (Calibrated Data) (IL-10 (human) [6]): 1280
- chemiluminescent spot intensity (Calibrated Data) (IL-10 (human) [7]): 1280
- chemiluminescent spot intensity (Un-Calibrated Data) (IL-10 (human) [8]): 508
- chemiluminescent spot intensity (Calibrated Data) (IL-10 (human) [9]): 1330
- chemiluminescent spot intensity (Calibrated Data) (IL-10 (human) [10]): 1360
- chemiluminescent spot intensity (Un-Calibrated Data) (IL-10 (human) [11]): 414
- chemiluminescent spot intensity (Un-Calibrated Data) (IL-10 (human) [12]): 691
Substance: MAb IL-10 (monoclonal capture antibody of the anti-human IL-10 OptEIA matched pair, BD Biosciences-Pharmingen)

- chemiluminescent spot intensity (Calibrated Data) (IL-12p40 (human) [13]): 300
- chemiluminescent spot intensity (Un-Calibrated Data) (IL-12p40 (human) [14]): 312
- chemiluminescent spot intensity (Calibrated Data) (IL-12p40 (human) [15]): 275
- chemiluminescent spot intensity (Un-Calibrated Data) (IL-12p40 (human) [16]): 179
- chemiluminescent spot intensity (Un-Calibrated Data) (IL-12p40 (human) [17]): 79
- chemiluminescent spot intensity (Calibrated Data) (IL-12p40 (human) [18]): 285
- chemiluminescent spot intensity (Calibrated Data) (IL-12p40 (human) [19]): 268
- chemiluminescent spot intensity (Un-Calibrated Data) (IL-12p40 (human) [20]): 125
- chemiluminescent spot intensity (Calibrated Data) (IL-12p40 (human) [21]): 270
- chemiluminescent spot intensity (Calibrated Data) (IL-12p40 (human) [22]): 312
- chemiluminescent spot intensity (Un-Calibrated Data) (IL-12p40 (human) [23]): 87
- chemiluminescent spot intensity (Un-Calibrated Data) (IL-12p40 (human) [24]): 156
Substance: MAb IL-12p40 (monoclonal capture antibody of the anti-human IL-12p40 OptEIA matched pair, BD Biosciences-Pharmingen)

- chemiluminescent spot intensity (Calibrated Data) (IL-8 (human) [25]): 2960
- chemiluminescent spot intensity (Un-Calibrated Data) (IL-8 (human) [26]): 3100
- chemiluminescent spot intensity (Calibrated Data) (IL-8 (human) [27]): 2900
- chemiluminescent spot intensity (Un-Calibrated Data) (IL-8 (human) [28]): 1760
- chemiluminescent spot intensity (Un-Calibrated Data) (IL-8 (human) [29]): 804
- chemiluminescent spot intensity (Calibrated Data) (IL-8 (human) [30]): 2900
- chemiluminescent spot intensity (Calibrated Data) (IL-8 (human) [31]): 2790
- chemiluminescent spot intensity (Un-Calibrated Data) (IL-8 (human) [32]): 1320
- chemiluminescent spot intensity (Calibrated Data) (IL-8 (human) [33]): 2750
- chemiluminescent spot intensity (Calibrated Data) (IL-8 (human) [34]): 3100
- chemiluminescent spot intensity (Un-Calibrated Data) (IL-8 (human) [35]): 905
- chemiluminescent spot intensity (Un-Calibrated Data) (IL-8 (human) [36]): 1580
Substance: MAb IL-8 (monoclonal capture antibody of the anti-human IL-8 OptEIA matched pair, BD Biosciences-Pharmingen)

From US20060210984A1
